Measured values reported in patent US20250320252A1 (Scripps Research, published 2025).
Bridge positions count the residues as written; N and C are the ends. Square brackets hold non-standard residues; d marks the D form. Ends that are not written are not given here. C20L5A = not defined here; L5A(S) = not defined here; Aib = CC(C)(N)C(=O)O

Experiments:
Assay in all cases: cell-based or functional assay
[1] = biological target: T1, human GIP receptor (human, UniProt P48546 22-466)
T1 sequence (looked up): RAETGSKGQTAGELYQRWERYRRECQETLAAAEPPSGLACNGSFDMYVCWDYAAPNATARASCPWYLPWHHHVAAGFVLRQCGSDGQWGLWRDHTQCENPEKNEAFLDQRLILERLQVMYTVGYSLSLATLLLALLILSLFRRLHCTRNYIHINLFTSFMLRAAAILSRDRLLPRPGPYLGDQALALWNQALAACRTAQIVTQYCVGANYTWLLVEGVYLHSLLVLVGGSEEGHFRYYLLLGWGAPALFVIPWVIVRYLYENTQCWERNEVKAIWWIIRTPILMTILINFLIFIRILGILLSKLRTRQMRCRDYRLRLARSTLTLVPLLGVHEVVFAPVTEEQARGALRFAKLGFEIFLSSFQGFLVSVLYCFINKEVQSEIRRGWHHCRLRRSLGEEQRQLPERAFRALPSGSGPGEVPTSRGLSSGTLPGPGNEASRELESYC

[2] = biological target: T2, mouse GLP1R (mouse, UniProt O35659 22-463)
T2 sequence (looked up): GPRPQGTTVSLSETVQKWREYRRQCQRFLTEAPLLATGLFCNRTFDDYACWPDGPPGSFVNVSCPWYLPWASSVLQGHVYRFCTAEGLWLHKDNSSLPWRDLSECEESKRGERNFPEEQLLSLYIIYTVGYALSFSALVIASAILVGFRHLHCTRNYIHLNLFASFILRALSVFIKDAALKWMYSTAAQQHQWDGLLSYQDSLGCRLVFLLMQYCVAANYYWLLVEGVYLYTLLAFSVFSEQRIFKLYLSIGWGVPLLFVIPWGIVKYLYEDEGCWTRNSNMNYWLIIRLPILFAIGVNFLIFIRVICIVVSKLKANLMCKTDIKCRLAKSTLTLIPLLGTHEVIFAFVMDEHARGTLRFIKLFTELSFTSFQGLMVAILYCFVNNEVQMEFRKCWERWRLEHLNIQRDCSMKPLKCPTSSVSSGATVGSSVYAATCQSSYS

[3] = biological target: cynomolgus monkey GLP1R (cynomolgus monkey, UniProt F8V479 24-463)
[4] = biological target: T3, dog GLP1R (dog, UniProt A0A8I3NUR9 25-464)
T3 sequence: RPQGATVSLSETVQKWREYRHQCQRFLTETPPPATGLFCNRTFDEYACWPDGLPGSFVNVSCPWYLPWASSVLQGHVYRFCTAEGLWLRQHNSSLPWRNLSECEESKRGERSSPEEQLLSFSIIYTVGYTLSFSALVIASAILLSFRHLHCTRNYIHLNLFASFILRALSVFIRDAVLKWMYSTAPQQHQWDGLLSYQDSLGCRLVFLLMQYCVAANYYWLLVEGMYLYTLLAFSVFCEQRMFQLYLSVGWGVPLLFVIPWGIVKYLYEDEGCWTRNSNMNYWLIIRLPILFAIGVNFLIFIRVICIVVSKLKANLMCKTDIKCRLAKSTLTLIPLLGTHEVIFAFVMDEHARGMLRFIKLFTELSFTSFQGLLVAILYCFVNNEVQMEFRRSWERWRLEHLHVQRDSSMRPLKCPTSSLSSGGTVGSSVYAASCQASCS

[5] = biological target: T4, mouse GIPR (mouse, UniProt Q0P543 19-460)
T4 sequence (looked up): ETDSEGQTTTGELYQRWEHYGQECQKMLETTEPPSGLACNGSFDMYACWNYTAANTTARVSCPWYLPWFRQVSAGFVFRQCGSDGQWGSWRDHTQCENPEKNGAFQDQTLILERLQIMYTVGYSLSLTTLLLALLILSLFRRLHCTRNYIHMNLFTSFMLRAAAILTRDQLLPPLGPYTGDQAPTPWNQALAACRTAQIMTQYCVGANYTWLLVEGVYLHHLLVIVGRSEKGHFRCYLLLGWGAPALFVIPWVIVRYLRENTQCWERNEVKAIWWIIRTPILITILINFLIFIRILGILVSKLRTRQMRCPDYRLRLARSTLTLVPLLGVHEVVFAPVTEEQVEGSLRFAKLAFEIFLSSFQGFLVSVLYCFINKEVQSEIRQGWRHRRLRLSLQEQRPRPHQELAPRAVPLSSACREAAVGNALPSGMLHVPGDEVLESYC

[6] = biological target: T5, cynomolgus monkey GIPR (cynomolgus monkey, UniProt A0A2K5VD75 22-466)
T5 sequence: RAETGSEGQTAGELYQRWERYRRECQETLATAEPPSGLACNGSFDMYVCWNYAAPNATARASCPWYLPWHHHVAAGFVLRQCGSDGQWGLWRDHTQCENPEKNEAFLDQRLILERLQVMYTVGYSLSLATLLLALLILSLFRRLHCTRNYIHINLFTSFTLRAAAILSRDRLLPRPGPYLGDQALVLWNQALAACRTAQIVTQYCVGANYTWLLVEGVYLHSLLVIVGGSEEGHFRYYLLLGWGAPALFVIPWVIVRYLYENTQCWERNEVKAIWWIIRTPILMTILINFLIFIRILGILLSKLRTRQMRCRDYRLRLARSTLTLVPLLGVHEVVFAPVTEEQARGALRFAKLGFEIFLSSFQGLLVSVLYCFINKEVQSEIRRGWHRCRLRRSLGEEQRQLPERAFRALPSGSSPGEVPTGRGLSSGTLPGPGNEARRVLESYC

[7] = biological target: T1, human GIP receptor; remark: listed apart in the source
[8] = biological target: dog GIPR (dog)

Row | Binder | EC50 of receptor-mediated cAMP synthesis, GIPR (nM), 02/19 [1] | EC50 of receptor-mediated cAMP synthesis, GIPR (nM), 03/25 [1] | EC50 of receptor-mediated cAMP synthesis, GIPR (nM), 03/26 [1] | EC50 of receptor-mediated cAMP synthesis, GIPR (nM), average [1] | In Vitro Potency GLP1R EC50 [nM], Mouse [2] | In Vitro Potency GLP1R EC50 [nM], Cyno [3] | In Vitro Potency GLP1R EC50 [nM], Dog [4] | In Vitro Potency GIPR EC50 [nM], Mouse [5] | In Vitro Potency GIPR EC50 [nM], Cyno [6] | In Vitro Potency GIPR EC50 [nM], 10% FBS [7] | In Vitro Potency GIPR EC50 [nM], Dog [8]
1 | Y[Aib]EGTFTSDYSIYLDKCAA[Aib]EFVCWLIAGGPSSGAPPPS-NH2 (linker 17-24 via C20L5A; not fully specified; reading uncertain) [mCMV268 (27I, C(17-24)-C20L5A)] | 0.05 nM | 0.04 nM | 0.03 nM | 0.04 nM | 0.26 nM | 0.22 nM | 1.48 nM | 0.26 nM | 0.16 nM |  | 
2 | Y[Aib]EGTFTSDYSIYLDKCAA[Aib]EFVCWLIAGGPSSGAPPPS-NH2 (linker 17-24 via L5A(S); not fully specified; reading uncertain) [mCMZ371 (C(17-24)-L5A(S))] |  |  |  |  |  | 0.11 nM | 1.34 nM | 0.27 nM |  | 0.04 nM | 0.47 nM
